We go through two substances from patent US6906033.

For the assay, the target named is Plasmin. Put plainly: enzyme inhibition.

A word on the Ki: it is the dissociation constant of the complex between target and ligand, obtained from inhibition or displacement.

Substance Aprotinin R15, S42 showed a Ki of 0.17 nM.
Consider Aprotinin, for which the Ki was 0.23 nM.
